In the domain aggregation screens of Martell et al. (2025):

Assay: soluble fraction after stress (log2 fold change); higher = more stays soluble; pooled small domains, quantitative proteomics
Conditions: stress: pH 4
In short: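 Small protein domains from pooled custom libraries were exposed to pH 4, then quantified with high-throughput quantitative proteomics. The fold change in how much of each domain remains soluble is read as aggregation propensity. It is given as log2, with higher values meaning more stayed soluble.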

Row | Sequence | soluble fraction (log2)
1 | HMDEYGEVQALQRAGQTSEALARADRHIAAHPNDPQMRFVKANLLSAGGRAGEAETLLVQLTRD | -0.176
2 | HMLEVTQTDVKMYTTSGTPVYAAPDLNSAIVVYLERFVNVTVTGITDNGFYRVNLNGDYYIPGPYLISSV | -0.759
3 | HMLPGWMETKFTANVSENTKNRTLEEHVLKMLNNKESAAEFIIFLHEKMMSVSGQVFQLDSR | -0.0998
4 | HMEDEEILNEIRHTEQYVYYFGNYIMEHHVSRGLSKEKVIASLARELQIEIADIREDFDGMIEQIKTNILN | -0.416
5 | HMKGERHNKILELIQQHAIDRQEDLLRYLKEAGFQVTQATVSRDIRELHLVKVAAGGGQYRYVSAAAAS | -0.255
6 | HMKWGDTPTVEVPNLIGMKKKDLQTQLVDLKLDISGDGEKVIKQSPEAGAKVKEGSKIRIYFG | -0.0575
7 | HMDNTSNVEKTLRFIRQRGKVSRKEVETLLGSSKFPAISALNELLAENKIVKTGSGPAVRYSVS | 0.018
8 | HMQDNPELVARIEKAAARGTSSMSDWERSFMGSLLDSAKKWGRLTAKQHEVFQRIEKKTDPAHQAAVS | 0.0292
9 | HMKLLLSANISKLRKKYSMTQEQLAEALGVTFASVSKWERGVATPELKLIAEMADMFEVSIDALIGYEFRN | -1.41
10 | HMRNLYEILGVSKDAPQGEIKSAYRKLAKTYHPDLNPNNEKAAELFKEINQAYEVLSDETKRRHYDQFGEA | ≥ 0.43
11 | HMFKNWMPFDEARIFVRKLKFNSHDEFRKYLKANEINIPSKPWSTYKGKGWVSIGDFLGTHR | -0.308
12 | HMVDVNLLKYYVMESGKSLTDVAAAIGVTPATLHRKMSGESDFYRKEMQDIASYLGLDRDTIDRIFF | -0.892
13 | HMQATDEEIENFTSSAITAYKLTKEEGYIISMRDMKPIMEIVKTEYPMANGKVVSKVMNNYING | 0.22
14 | HMSTQGRRIEILRHLTQTKKKADVNFVELGRTFGTSDTTIRKDLDWLIKNEYWENHGEWKPTQAGLNMI | -0.00179
15 | HMKWYDSDKGFGFLSQEEGEDVYVRSSALPAGVEGLKAGQRVEFGIASGRRGPQALSL | -0.71
16 | HMQVVDWSQVDKEDYLLATKRRAVSTGELKFLLLNNLTYDLTQTRFFKGMDASYYYEGYNLYQTGE | -0.693
17 | HMENTIPSVIGRTLSDGVFLLESYGYVKGNVSEEFSEMPIGVIIRQFPGAGSAAEAGTRVDLVVSKGEEIV | -0.316
18 | HMSPTEQEKIGLFIKKLREEKNLTQEAFASLLKTSQSAVARIESGNQNITIEQLMKIGEVLNHNIVSI | -0.215
19 | HMGKPTPASQVATRWLTGNLPESLPVAGPAPSFEALARTVSTDLHPRSVLQELVRLGVAEEANGVVTLRRQ | -0.0399
20 | HMEWTVEKQAAATLNAWMRKNSEMTSEKKVAVAAGIGPATVNRIMKAEVSTTIGVLSSLARAFGHEAYEMI | 0.114
21 | HMTQDFEPGGQVFSRGEWLTIIRVNKSNGAVSSVTTPNYSFLGYSGTMKVTPDRITDYKAPSAEEAAVAS | -0.0277
22 | HMDSVEMFSPILGMNANMDLDTLTQTRDKLLEKYKDDEQLIGLVNKTYDYFNEILLKQFLIEELEKNE | -0.207
23 | HMKKAIYPGSFDPLTLGHIDIIKRASGIVDELVVGVLNNSAKNSLFSLDERVSMIEEMTKDLPNVSVTSFD | -0.0125
24 | HMEANAYFDAYPDVAAEWARLSGSDEGKATLSAIGVTTPQQFAQYHYTTFGSKENRNAPVGYTP | -0.47
25 | HMIEEIPYSQFMSMLEEGKIDKAEIYQDSIIFSTKPDEQGKAGYYSIAYMKDNVLADRLYDAGVEFTPII | -1.4

Row | Sequence | soluble fraction (log2)
26 | HMETGGLAQEAERELALLQEQIAHHEALYRKGTPEISDGAFDELFDRYQELADSLGVPADERIDRA | -0.836
27 | HMNLTLMDALKAAGLPVDGINLSMVNKMMEEQMPIDKTSLNQMYQLVQDNKDINVTTLVELKRLG | -0.393
28 | HMSIYYQIYESLKKDLSNNLYKPGEKLPSENVLSKRFGVNRHTIRRSLQLLKNEGILFSKRGSGIIVHD | 0.359
29 | HMDALPLIQLEKEIKDFISQGQKINAIKHYRNVMDRDFGTTISLKLAKYTVDALAQNIKVDLTKGYDQ | -0.852
30 | HMGLSAEAARMAIQDAGLSKEDFAQKLGIKKVERVVEWEAGTSKPTFVQAQKIANATNIPFGYLFLVNPPK | 0.0939
31 | HMQQNYREMHKVKKGETLFGIARRYEITVDQLIKANPDMNAVGYELKKGDYIFIPYPDGQKP | -0.116
32 | HMETKPTELMLDVHKLRIGMFVYLDLGWMDHPFPLNRFKISTNAQIEQIKGLRLKQVKVMTALSDPASLL | -0.637
33 | HMAPDYYALLGVPRNATTAEVRKAFRGKALEQHPDRGGDEESFRLLSKAYDVLSDSERRKYYDRTG | 0.14
34 | HMSNWYKNNETDQIWWKDTPDSVGEWLFSFDKKQVFNMFADYPHNLTPEQKKIFDEENPEWSDRP | -0.981
35 | HMKIIDDIQEFAGVTKTQNTFFHIFNHLHQNGKQLILTSDRAPVMLQGMEERLLTRFKWGLVAELE | 0.158
36 | HMGTVQSVDRALLLLSEIGREPGGLVDLSTRVRLATSTTGRILATLEHAGAVVRGDDGIYHIGPLVHGMVS | 0.0724
37 | HMWQKGEPAITGLKRISKPGLRIYSKNDELPIVYGNRGIAVISTNKGVMTGIEAKRSGVGGEVLFYV | 0.104
38 | HMLGERIRTLRKEIGMSVTELARRVKTSPSHISEIERGEKMPSLNLLVKIAKELKTSIDYLTGLVG | -0.487
39 | HMTELPLTPRSKRILEMSALEARRLNHSYIGTEHLLMAIIRDGDGVAAKILESLGVNLPNFYTDTVRSIE | -0.0691
40 | HMIPTTELAERLGTTKVANMIMLGALIKASGIISFDDMIKNLGELLGEGKAKLIKLNKEALEVGFN | 0.0451
41 | HMTGESVPAPLSGTIFKILVAPGEQVEEGQTVIILEAMKMETEISAPRSGVVGAINIKEGDSVQVGQSLFT | 0.104
42 | HMPVSRMRARHEALARGVMGIHAGGFSAVYGYRKVWHGLIGKGWDPGEVGRDQVMNIMRGLGMQGVRR | 0.22
43 | HMFEKVKLTLTIPSKYSGSTYSALRNRMNKFSKEEWLSNGDLKIEIEVTGGQKTDIYTLINKLTNGEAIIE | -0.203
44 | HMDVNLSIRSGETIGIIGSTGSAKSTLVQLIPRLYDTTEGEVLVGGVNVKNYDLEALRNSVAMVLQKN | -0.155
45 | HMTKPTLMEVEIKGAIQNPGVYTLKRNSSISKLIKMSGPLLENADTSSISFTHILQDKDVVVIPEIK | -0.177
46 | HMENNIRLSVPDTESGQRIDSYLAEQIPGLTRSAVQNLLAEQAVTIAGKAVKKNYKLLGGEDILVQLPEVR | ≥ 0.43
47 | HMKQLIGYSVIDIKMGKLGEISFVNSKTAQALIHVSKDGKGFYFPWHKQFVKNIDAEKGIMEVEIPKEFLD | -0.85
48 | HMAAHHIILEEREQLSVSGVEEVESFDENTIVMLTNRGTLIVRGEELHIEKLSLDGGDLRVEGSIDSLTYE | -1.09
49 | HMSATPQRMSIINELDSARKNLSAYDLRDSLKDKGHSFNISTIYRVLSFWIDVGVVHKMDSSNTYL | -0.315
50 | HMGTGIKQVNVVSVIGQDEETAKTTLTNLGLKVNVTYATSTSDNGKVTKQSIDAGKTVDEGTSVTITVNKV | -0.269

Row | Sequence | soluble fraction (log2)
51 | HMNNWYESSIKSLVEEYFREHGFSVVFDSSEFWDVFIEKYHKQIPSSQIALFDQVAAEARSYAFNKK | -0.545
52 | HMGIILDWELFEQFADKLKRKKVDFVIEPYLRFEGRRGEQSTLFIKDPSGNYLEFKAFKNIDMLFEK | -1.38
53 | HMRYVVQVATFSSKNNAIRAADDLAGFVVVSNGYYRVRTGPYADRGEANAALAKARKAGYTDAFVDTS | 0.0704
54 | HMAAEPDQQLIKPASDPVLRTMKIEELMKMSEQVKIQMSKAAKNFDYLEAARLRDEHFALENLIKLRS | 0.156
55 | HMNELVEATITTQTGRLDKVLTTIFPQYSRSQIQQLLEQGNILVNETLQKGKYKVKAGDKISLTEPAIKE | ≥ 0.43
56 | HMDNPVPVIITDQNFQPQLWKNVGVPTDTLFHELSAANQRKLENLMKTMIQTPLTDNGKISGYAFYSK | 0.152
57 | HMNGELSQRQWQILRLIAQGLSNEQMARQLFVAPSTIKTHINHLYAKLGVRTRAEAQAIARQKLMA | -0.0448
58 | HMNDLIFSTLAEYDRDTITEIISVVDNTRGIGYEVELVRKDLIAMAAQAEARRDYLPSVIGDVEVFKRNLL | -0.0414
59 | HMLVDWNYLEGKRGVTTTPLTPSGKARFGDDVVNVLSDGVLVSTGTPVRVLQVLGNRVLVEPLDG | 0.0163
60 | HMAKPAALLFEHRFDGMAEMRFRENIVKNDDGSYTYDEYFLSMLDRAGLEKIVQENMEVWIAYAKQ | -1.42
61 | HMVQPSAAVRAHPVGAFVEQRQGLSDDQILALQKKWNEGIYARIQGTRWFLFSKDTPAVTSLLLVPDLP | -0.0222
62 | HMKRMSKKQLSAVIEKYFSSQPGVTLTLKDIFRNLHLDTHPLKMIALDILEEMSWDDVIMKVSDTSYALNT | 2.81e-05
63 | HMNSISDSELKALIKNNYLKFLKRIASDEEIEYHFNQIKNKTILLDELDSIFQNSQEYKDLVEHNNKIQN | -0.809
64 | HMPLYKYYTSYQIEPGDTLTSIAQKYTINSDVSVQDYIDEVKKNNNLVSDKINSGSYLVVSYYSNEY | -1.24
65 | HMKSTELSIIEALRVLGLKHGASQDSIKKSYRRLVKQHHPDLGGSADSFRKVNEAYQLLIMN | 0.0586
66 | HMQPDPAFVAWVDANPWYKENRTLRALVHDYAEEVKRQEPALIGTAFLDRVKQLVQSEHPELFD | -0.502
67 | HMVSSYTMAIQINGKLRATHDFSVDTSQEDIKKIIINLPAIQKYINGVEIKKFIIVPQKIVNIV | -0.0406
68 | HMNEYSLVPDIYGMTYDDALSSLRNVGLDGRLALASTNEDLANADTRVVWQSKEAGSIIDKGSNVMFVID | -1.27
69 | HMGRQVTVPNVTGMLVEEARAAISEAELWVDSPRAVQGEVTRQEPARGERLSPGQEVRIYTES | -0.568
70 | HMPFREGDEVFVELVEPHMYNEDDAVAKLDGYVVAVRGAAGLVGQKVLVRIERVGRSSAEATLVA | -0.451
71 | HMKEFSFNGGKVIMNYEADRIQIKHDSRPNQEVITLMKRNGFKWSPTNQAWQRQITGNAIYVTKNLLKS | -0.0347
72 | HMVQISNTDDLYPIVQRIVDANPQSVEDYKNGKAKALGFLVGQMMKETKGKANPSMVNDLIIKAIEE | 0.0143
73 | HMLLREKLESVLPFISVSALAKTYFKRSPQWFYQRLNGSIVNGKPIRFNDAELKTLAGALTDIGKKISQAA | 0.157
74 | HMGGGFLVPSLVGKSLEEARSLSELRGFKLEVGDYVISSEYPAGRVTRQNPANGAKGQEGDVIKVEVSS | 0.153
75 | HMSDEINYVIQINGKNRAEAEFGANLDKESIENLALEHERIKELLNGLTVRKIIVVPKKLVNIVA | 0.178
